Target: SARS-CoV-2 S1 334-526 N343D (SARS-CoV-2, UniProt P0DTC2 334-526)
Experiment: co-secretion from Pichia pastoris; biochemical and structural analysis

B1: VHH antibody Re21D01 (VHH)
VHH: QVQLVESGGALVQPGGSLRLSCVASGFTFSSFAMGWYRQAPGKECEWVATITITGGSTNYADSVKGRFTISRDNAKNTVYLQMNSLKPEDTAVYYCNPDPGCRRGQGTQVTVSS
Q: Does B1 bind?
A: binds
